Test results reported in PMC5078848, “NtKRP, a kinesin-12 protein, regulates embryo/seed size and seed germination via involving in cell cycle progression at the G2/M transition” (Scientific Reports, 2016).

Key:
MBP-NtKRP-Motor = target: T1, MBP-NtKRP-Motor (Nicotiana tabacum, UniProt A0A0D3QSP8); assay: microtubule co-sedimentation, SDS-PAGE; assay type: binding; conditions: taxol-stabilised microtubules, PEM buffer with 1 mM MgCl2, pH 6.8; nucleotide 5 µM
T1 construct: gene KRP; MBP-tagged motor domain, purified; motor 1-556 elsewhere
T1 sequence (A0A0D3QSP8 55-470 limits assumed): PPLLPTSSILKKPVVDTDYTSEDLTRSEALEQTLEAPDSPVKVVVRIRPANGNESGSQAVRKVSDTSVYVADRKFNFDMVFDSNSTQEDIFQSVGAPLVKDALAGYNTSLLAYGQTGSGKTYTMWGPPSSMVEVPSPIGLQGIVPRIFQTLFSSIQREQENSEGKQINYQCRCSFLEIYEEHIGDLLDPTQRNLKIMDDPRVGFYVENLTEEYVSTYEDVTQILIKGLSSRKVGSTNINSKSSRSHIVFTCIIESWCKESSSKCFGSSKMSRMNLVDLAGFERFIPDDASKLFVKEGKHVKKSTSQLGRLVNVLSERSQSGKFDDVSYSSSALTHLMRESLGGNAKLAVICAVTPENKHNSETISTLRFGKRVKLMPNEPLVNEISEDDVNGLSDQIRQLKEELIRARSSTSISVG

[1] = target: microtubules (polymerized tubulin, taxol-stabilised)
[2] = target: microtubules (polymerized tubulin, taxol-stabilised); assay: co-sedimentation; 100 uL with 25 ug taxol-stabilised MTs and 50 ug NtKRP-motor in PEM buffer pH 6.8; without nucleotide, with ATP or with AMPPNP; room temperature 30 min, 25,000 x g 20 min at 25 C; SDS-PAGE of supernatant and pellet, Coomassie
[3] = substrate: Nc1ncnc2c1ncn2[C@@H]1O[C@H](COP(=O)(O)OP(=O)(O)OP(=O)(O)O)[C@@H](O)[C@H]1O; assay: isothermal titration calorimetry ATPase assay; assay type: biochemical, Nicotiana tabacum; conditions: microtubules 4.4 µM (Methods print 1.67 µM MTs), 10 µM taxol, BRB80 with 1 mM MgCl2, 50 mM NaCl, pH 6.8, 25 °C

In the case of `Nc1ncnc2c1ncn2[C@@H]1O[C@H](COP(=O)(O)OP(=O)(O)OP(=O)(O)O)[C@@H](O)[C@H]1O` [ATP], the “microtubule co-sedimentation, SDS-PAGE” value (MBP-NtKRP-Motor) is reported as “The addition of ATP significantly reduced the amount of the fusion protein co-sediment”.

Work on “recombinant NtKRP motor domain (amino acids 1–556) (domain or fragment)” yielded a K0.5,MT of the MT-stimulated ATPase activity of the motor domain (coupled enzyme assay, 1 mM ATP, 0-5 uM MTs) [1] of 22 µM.

“MBP-NtKRP motor domain fusion protein (domain or fragment)” showed a percent coprecipitated with MTs (absence of ATP) [2] of 50%.

`Nc1ncnc2c1ncn2[C@@H]1O[C@H](COP(=O)(O)OP(=O)(O)NP(=O)(O)O)[C@@H](O)[C@H]1O` [AMPPNP] was tested, and the “microtubule co-sedimentation, SDS-PAGE” value (MBP-NtKRP-Motor) was “nonhydrolyzable ATP analog AMPPNP was used in place of ATP, most of the fusion protein”.

B1: NtKRP motor domain (recombinant motor protein, amino acids 1–556) (Nicotiana tabacum) (protein)
chain: MSENRFLGNISASSIRNLLPKSVSTKKKLNSSRFKHKMNSENVAPIDPNIQITDPPLLPTSSILKKPVVDTDYTSEDLTRSEALEQTLEAPDSPVKVVVRIRPANGNESGSQAVRKVSDTSVYVADRKFNFDMVFDSNSTQEDIFQSVGAPLVKDALAGYNTSLLAYGQTGSGKTYTMWGPPSSMVEVPSPIGLQGIVPRIFQTLFSSIQREQENSEGKQINYQCRCSFLEIYEEHIGDLLDPTQRNLKIMDDPRVGFYVENLTEEYVSTYEDVTQILIKGLSSRKVGSTNINSKSSRSHIVFTCIIESWCKESSSKCFGSSKMSRMNLVDLAGFERFIPDDASKLFVKEGKHVKKSTSQLGRLVNVLSERSQSGKFDDVSYSSSALTHLMRESLGGNAKLAVICAVTPENKHNSETISTLRFGKRVKLMPNEPLVNEISEDDVNGLSDQIRQLKEELIRARSSTSISVGSNGYFRGPNVRESLNQLRVSLNRSLILPSIDNDREEEIHINEDDIKELQLQIDNLRGSHGDNSKETLEKKDSLKYSSGESEHYLSC
notes: N-terminal motor domain fragment, residues 1-556 of 1194 (full length 134 kDa); recombinant
With B1 the Km [3] was 2.4 µM and the kcat [3] was 80.3 s⁻¹.
